For orientation: Kd means a measure of binding affinity in units of concentration.

The chains are these.
T1: human P2X4R peptide (extracellular 13-amino-acid peptide fragment of human P2X4R) (Homo sapiens, UniProt Q99571, biotinylated (position not given) where immobilised as ligand)
T1 construct: P2X purinoceptor 4, human; extracellular 13-amino-acid peptide fragment, the counterpart of rat residues 301-313 (11/13 residues identical to the rat peptide); also called human P2X4 peptide; source: synthetic peptide (GenScript)
T1 chain: RDLAGNEQRTLIK

B1: humanized P2X4R scFv HC3-LC3 (lead) (scFv, V domains shown)
VH: EVQLVESGGGLVQPGGSLRLSCATSGFTFTDYYMHWVRQAPGKGLEWVGFIRNKANGYTTEYSASVKGRFTISRDNSKNTLYLQMNSLRAEDTAVYYCARWEGDLLYAMDYWGQGTLVTVSS
VL: DIQMTQSPSSLSASVGDRVTITCRASQGISNYLNWYQQKPGKAPKLLIYYTSSLHSGVPSRFSGSGSGTDFTLTISSLQPEDFAYYYCQQYSKLPWTFGGGTKVEIK
notes: humanized VH hscFv95.HC3 (CDRs of murine mscFv95 grafted on a human framework); 15-amino-acid linker, printed as (G4S)3; humanized VL hscFv95.LC3, as the VL of m3; Cloned NcoI/NotI into a pET32a-His vector; Captured on HIS1K penta-His sensors in the Octet assay; also called hscFv HC3-LC3; P2X4R hscFv; source: E. coli Rosetta-gami (DE3), purified (HisTrap, SEC)
B2: humanized P2X4R scFv HC2-LC3 (scFv, V domains shown)
VH: QVQLQESGPGLVKPSQTLSLTCTTSGFTFTDYYMSWVRQAPGKGLEWIGFIRNKANGYTTEYSASVKGRFTISRDNSKNQFSLRLSSVTAADTAVYYCARWEGDLLYAMDYWGQGTTVTVSS
VL: B1 VL
notes: humanized VH hscFv95.HC2, as the VH of m2; 15-amino-acid linker, printed as (G4S)3; humanized VL hscFv95.LC3 (CDRs of murine mscFv95 grafted on a human framework); Cloned NcoI/NotI into a pET32a-His vector; also called hscFv95.HC2 + hscFv95.LC3; source: E. coli Rosetta-gami (DE3), purified (HisTrap, SEC)
B3: humanized P2X4R scFv HC3-LC1 (scFv, V domains shown)
VH: B1 VH
VL: DIQMTQTTSSLSASLGDRVTISCSASQGISNYLNWYQQKPDGTVKLLIYYTSSLHSGVPSRFSGSGSGTDYSLTISNLEQEDIATYYCQQYSKLPWTFGGGTKLEIK
notes: humanized VH hscFv95.HC3, as the VH of m4; 15-amino-acid linker, printed as (G4S)3; humanized VL hscFv95.LC1, as the VL of m1; Cloned NcoI/NotI into a pET32a-His vector; also called hscFv95.HC3 + hscFv95.LC1; source: E. coli Rosetta-gami (DE3), purified (HisTrap, SEC)
B4: humanized P2X4R scFv HC1-LC1 (scFv, V domains shown)
VH: EVKLVESGGGLVQPGGSLRLSCATSGFTFTDYYMSWVRQPPGKALEWLGFIRNKANGYTTEYSASVKGRFTISRDNSQSILYLQMNTLRAEDSATYYCARWEGDLLYAMDYWGQGTSVTVSS
VL: B3 VL
notes: humanized VH hscFv95.HC1 (CDRs of murine mscFv95 grafted on a human framework); 15-amino-acid linker, printed as (G4S)3; humanized VL hscFv95.LC1 (CDRs of murine mscFv95 grafted on a human framework); Cloned NcoI/NotI into a pET32a-His vector; also called hscFv95.HC1 + hscFv95.LC1; source: E. coli Rosetta-gami (DE3), purified (HisTrap, SEC)
B5: humanized P2X4R scFv HC2-LC1 (scFv, V domains shown)
VH: B2 VH
VL: B3 VL
notes: humanized VH hscFv95.HC2 (CDRs of murine mscFv95 grafted on a human framework); 15-amino-acid linker, printed as (G4S)3; humanized VL hscFv95.LC1, as the VL of m1; Cloned NcoI/NotI into a pET32a-His vector; also called hscFv95.HC2 + hscFv95.LC1; source: E. coli Rosetta-gami (DE3), purified (HisTrap, SEC)

The target in one experiment is T1, human P2X4R peptide (extracellular …). The experiment can be described thus: BLI; Octet RED384; hscFv (5 ug/mL) captured on HIS1K penta-His sensors; peptide in 7 three-fold dilutions, 1.03-250 nM; 1X KB (PBS pH 7.4, 0.02% Tween-20, 0.1% albumin, 0.05% sodium azide); association 240 s, dissociation 420 s; global 1:1 fit. The following applies: both partners purified.
In turn, B1 had a dissociation constant (Kd) of 2.5 nM.

The target is the same in the next experiment. The experiment can be described thus: ELISA; indirect ELISA, purified hscFvs on human P2X4 peptide, triplicate wells (Figure 3B). The conditions noted are these: both partners purified. Background: An ELISA detects its analyte on a solid surface through an enzyme-linked reagent.
Consider B1, for which the Kd was 2.3 nM.
Still for that read-out and setting: the same measure for B2: 29 nM; for B3: 4.7 nM.
As for B4, the Kd was 24 nM.
Molecule B5 displayed a Kd of 12 nM.

The record behind these values is PMC12248463, “Humanized scFv Molecule Specific to an Extracellular Epitope of P2X4R as Therapy for Chronic Pain Management” (Cells, 2025).
